Experimental data as given in PMC3547847, “A Newly Uncovered Group of Distantly Related Lysine Methyltransferases Preferentially Interact with Molecular Chaperones to Regulate Their Activity” (PLoS Genetics, 2013).

Experiments:
Assay in all cases: pull-down; 500 ng GST-tagged METTL21D with 100 ng His-tagged protein and Glutathione Sepharose 4B beads, 1 hour at 4°C, 50 mM NaCl, 50 mM HEPES-KOH pH 7.6, 0.1% NP-40, 0.5% charcoal-stripped FBS; bound His-tagged proteins detected by anti-6X His Western blot; AdoMet or AdoHcy present in Figure 6E; VCP and ASPSCR1 also added together (more binding)
Conditions in all cases: both partners purified
VCP-His = target: T1, VCP-His (human, UniProt P55072 1-806)
T1 construct: VCP/p97, human; also called His-tagged VCP; wild-type VCP-His; source: E. coli One Shot BL21 Star (DE3), purified (Ni-NTA Agarose)

VCP-His R155H = target: T2, VCP-His R155H (human, UniProt P55072 1-806, R155H)
T2 construct: VCP/p97, human, with the IBMPFD- and ALS-linked substitution R155H; also called VCP mutant R155H; source: E. coli One Shot BL21 Star (DE3), purified (Ni-NTA Agarose)

VCP-His R159G = target: T3, VCP-His R159G (human, UniProt P55072 1-806, R159G)
T3 construct: VCP/p97, human, with the ALS-linked substitution R159G; also called VCP mutant R159G; source: E. coli One Shot BL21 Star (DE3), purified (Ni-NTA Agarose)

VCP-His R191Q = target: T4, VCP-His R191Q (human, UniProt P55072 1-806, R191Q)
T4 construct: VCP/p97, human, with the IBMPFD- and ALS-linked substitution R191Q; also called VCP mutant R191Q; source: E. coli One Shot BL21 Star (DE3), purified (Ni-NTA Agarose)

ASPSCR1-His = target: T5, ASPSCR1-His (human, UniProt Q9BZE9 1-553)
T5 construct: ASPSCR1/UBXD9, human; also called full-length ASPSCR1; His-tagged ASPSCR1; source: E. coli One Shot BL21 Star (DE3), purified (Ni-NTA Agarose)
T5 sequence (looked up): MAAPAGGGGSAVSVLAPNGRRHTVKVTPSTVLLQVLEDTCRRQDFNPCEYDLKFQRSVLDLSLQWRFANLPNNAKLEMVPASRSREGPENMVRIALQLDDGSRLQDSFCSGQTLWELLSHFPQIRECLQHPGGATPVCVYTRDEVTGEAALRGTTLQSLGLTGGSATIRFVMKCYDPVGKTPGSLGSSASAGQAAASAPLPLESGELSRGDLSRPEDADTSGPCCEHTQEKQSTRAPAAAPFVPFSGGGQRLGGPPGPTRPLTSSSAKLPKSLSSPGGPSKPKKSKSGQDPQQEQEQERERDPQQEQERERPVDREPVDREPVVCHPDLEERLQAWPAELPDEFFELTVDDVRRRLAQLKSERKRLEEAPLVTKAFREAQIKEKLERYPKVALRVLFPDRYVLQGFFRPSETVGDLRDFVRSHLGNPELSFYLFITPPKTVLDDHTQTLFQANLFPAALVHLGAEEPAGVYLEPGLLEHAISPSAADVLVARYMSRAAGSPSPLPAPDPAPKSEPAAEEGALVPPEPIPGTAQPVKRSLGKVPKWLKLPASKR

[1] = target: T6, C-terminal fragment of ASPSCR1 (residues 280–553) (human, UniProt Q9BZE9 280-553)
T6 construct: ASPSCR1/UBXD9, human, residues 280-553; also called C-terminal half of ASPSCR1; source: E. coli One Shot BL21 Star (DE3), purified (Ni-NTA Agarose)
T6 sequence (looked up): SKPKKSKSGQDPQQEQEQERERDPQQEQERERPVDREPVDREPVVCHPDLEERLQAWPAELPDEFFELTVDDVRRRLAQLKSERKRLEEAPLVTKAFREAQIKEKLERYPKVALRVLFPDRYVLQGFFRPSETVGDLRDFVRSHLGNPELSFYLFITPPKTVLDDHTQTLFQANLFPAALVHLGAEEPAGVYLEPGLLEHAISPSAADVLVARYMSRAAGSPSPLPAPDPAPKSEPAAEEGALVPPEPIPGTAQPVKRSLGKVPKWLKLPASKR

Measured: binding result

T1 sequence (P55072 whole entry): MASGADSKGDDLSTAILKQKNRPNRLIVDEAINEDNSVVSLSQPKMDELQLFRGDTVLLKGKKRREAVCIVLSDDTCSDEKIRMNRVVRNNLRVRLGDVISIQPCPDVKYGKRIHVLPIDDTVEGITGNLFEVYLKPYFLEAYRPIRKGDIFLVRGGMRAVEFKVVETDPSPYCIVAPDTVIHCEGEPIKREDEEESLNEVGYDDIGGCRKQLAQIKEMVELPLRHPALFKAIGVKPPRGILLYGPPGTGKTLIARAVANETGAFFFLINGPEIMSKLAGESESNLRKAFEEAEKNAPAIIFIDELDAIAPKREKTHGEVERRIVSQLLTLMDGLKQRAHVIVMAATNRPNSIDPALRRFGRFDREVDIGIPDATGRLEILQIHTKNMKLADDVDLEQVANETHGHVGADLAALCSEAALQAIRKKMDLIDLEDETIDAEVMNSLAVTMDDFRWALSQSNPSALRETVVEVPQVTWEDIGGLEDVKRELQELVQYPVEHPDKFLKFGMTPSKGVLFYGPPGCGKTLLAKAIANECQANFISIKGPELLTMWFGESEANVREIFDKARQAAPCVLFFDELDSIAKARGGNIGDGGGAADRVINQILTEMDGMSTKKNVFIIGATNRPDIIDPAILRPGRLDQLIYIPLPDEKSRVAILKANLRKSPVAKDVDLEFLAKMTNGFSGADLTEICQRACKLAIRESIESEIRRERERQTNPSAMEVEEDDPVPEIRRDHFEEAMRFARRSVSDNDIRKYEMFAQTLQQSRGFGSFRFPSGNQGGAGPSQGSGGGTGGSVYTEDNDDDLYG
T3 sequence (P55072 whole entry R159G): as the sequence (P55072 whole entry) above, with R159G counted along it
T2 sequence (P55072 whole entry R155H): as the sequence (P55072 whole entry) above, with R155H counted along it
T4 sequence (P55072 whole entry R191Q): as the sequence (P55072 whole entry) above, with R191Q counted along it

B1: GST-METTL21D (enzyme, human, UniProt Q9H867 1-229, looked up)
chain: MADTLESSLEDPLRSFVRVLEKRDGTVLRLQQYSSGGVGCVVWDAAIVLSKYLETPEFSGDGAHALSRRSVLELGSGTGAVGLMAATLGADVVVTDLEELQDLLKMNINMNKHLVTGSVQAKVLKWGEEIEGFPSPPDFILMADCIYYEESLEPLLKTLKDISGFETCIICCYEQRTMGKNPEIEKKYFELLQLDFDFEKIPLEKHDEEYRSEDIHIIYIRKKKSKFPS
notes: METTL21D, human; also called GST-tagged METTL21D; wild type METTL21D; source: E. coli One Shot BL21 Star (DE3), purified (Glutathione Sepharose 4B)
binds: VCP-His | VCP-His R155H | VCP-His R159G | VCP-His R191Q | ASPSCR1-His | [1]
